According to US20220324978A1:
Each block holds one binder with its values, some of them ahead of it.

Molecular target: T1, Histidine-tagged canine PD-1 protein (canine)
T1 sequence: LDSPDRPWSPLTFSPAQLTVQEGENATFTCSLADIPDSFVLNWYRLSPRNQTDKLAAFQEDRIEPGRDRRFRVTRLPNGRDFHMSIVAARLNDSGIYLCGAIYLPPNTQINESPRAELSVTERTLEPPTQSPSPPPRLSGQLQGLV
Test: SPR (Biacore), dPD-1-His amine-coupled to CM5 chip, antibody injected, 1:1 Langmuir fit

B1: 1D8-H1K1-dIgG4 (antibody, V domains shown)
VH: EVQLVESGGDLVKPVGSLRLSCVASGFTFNNFGMSWVRQAPGKGLQWVATLSSGSSYTYYSDSVKGRFTISRDNAKNTLYLQMNSLRAEDTAMYYCTRGESRFAYWGQGTLVTVSA
VL: GVVITQDPLSLAVTPGELVTISCRSSKSLLYKDGKTYLNWYLQKPGQTPRLLIYLMSTRASGVSDRFSGSGSGTDFTLKISRVEAEDVGVYYCQQLIEYPLTFGAGTKVELK
- Kd: 4.57 nM
- koff: 0.00309 s⁻¹
- kon: 675000 M⁻¹ s⁻¹

B3: 1D8-H1K2-dIgG4 (antibody, V domains shown)
VH: EVQLVESGGDLVKPVGSLRLSCVASGFTFNNFGMSWVRQAPGKGLQWVATLSSGSSYTYYSDSVKGRFTISRDNAKNTLYLQMNSLRAEDTAMYYCTRGESRFAYWGQGTLVTVSA
VL: GVVITQDPLSLAVTPGELVTISCRSSKSLLYKDGKTYLNWFLQKPGQTPRLLIYLMSTRASGVSDRFSGSGSGTDFTLKISRVEAEDVGVYYCQQLIEYPLTFGAGTKVELK
- Kd: 4.5 nM
- koff: 0.00248 s⁻¹
- kon: 550000 M⁻¹ s⁻¹

B4: 1D8-H2K2-dIgG4 (antibody, V domains shown)
VH: EVQLVESGGDLVKPVGSLRLSCVASGFTFNNFGMSWVRQAPGKGLEWVATLSSGSSYTYYSDSVKGRFTISRDNAKNTLYLQMNSLRAEDTAMYYCTRGESRFAYWGQGTLVTVSA
VL: GVVITQDPLSLAVTPGELVTISCRSSKSLLYKDGKTYLNWFLQKPGQTPRLLIYLMSTRASGVSDRFSGSGSGTDFTLKISRVEAEDVGVYYCQQLIEYPLTFGAGTKVELK
- Kd: 4.34 nM
- koff: 0.00262 s⁻¹
- kon: 604000 M⁻¹ s⁻¹

B5: 1D8-H2K1-dIgG4 (antibody, V domains shown)
VH: EVQLVESGGDLVKPVGSLRLSCVASGFTFNNFGMSWVRQAPGKGLEWVATLSSGSSYTYYSDSVKGRFTISRDNAKNTLYLQMNSLRAEDTAMYYCTRGESRFAYWGQGTLVTVSA
VL: GVVITQDPLSLAVTPGELVTISCRSSKSLLYKDGKTYLNWYLQKPGQTPRLLIYLMSTRASGVSDRFSGSGSGTDFTLKISRVEAEDVGVYYCQQLIEYPLTFGAGTKVELK
- Kd: 5.36 nM
- koff: 0.00348 s⁻¹
- kon: 650000 M⁻¹ s⁻¹

Now those with a lower Kd, led by results:

- Kd: 1.07 nM
- koff: 0.000454 s⁻¹
- kon: 424000 M⁻¹ s⁻¹
B6: 1B9-H1K1-IgG4 (antibody, V domains shown)
VH: EVQLVQSGAEVKKPGASVKVSCKTSGYTFTSFWMNWVRLAPGAGLDWIGRVDPYDSETHYNQKFKDRVILTVDTSTSTAYMELSSLRAGDIAVYYCATQFGFSWLAYWGQGTLVTVSA
VL: EIVMTQSPGSLAGSAGESVSINCKSSQSLLYSSNQKNYLAWYQQKPGESPKLLIYWASTRESGVPDRFSGSGSGTDFTLTINNLQAEDVGVYYCQQYYSNPYTFGQGTKLEIK

- Kd: 1.03 nM
- koff: 0.00049 s⁻¹
- kon: 475000 M⁻¹ s⁻¹
B8: 1B9-H1K2-IgG4 (antibody, V domains shown)
VH: EVQLVQSGAEVKKPGASVKVSCKTSGYTFTSFWMNWVRLAPGAGLDWIGRVDPYDSETHYNQKFKDRVILTVDTSTSTAYMELSSLRAGDIAVYYCATQFGFSWLAYWGQGTLVTVSA
VL: DIVMTQSPGSLAVSAGESVSINCKSSQSLLYSSNQKNYLAWYQQKPGESPKLLIYWASTRESGVPDRFSGSGSGTDFTLTINNVQAEDVGVYYCQQYYSNPYTFGQGTKLEIK

- Kd: 0.768 nM
- koff: 0.000454 s⁻¹
- kon: 591000 M⁻¹ s⁻¹
B7: 1B9-H2K1-IgG4 (antibody, V domains shown)
VH: EVQLVQSGAEVKKPGASVKVSCKASGYTFTSFWMNWVRLAPGAGLEWIGRVDPYDSETHYNQKFKDRAILTVDTSTSTAYMELSSLRAGDIAVYYCATQFGFSWLAYWGQGTLVTVSA
VL: EIVMTQSPGSLAGSAGESVSINCKSSQSLLYSSNQKNYLAWYQQKPGESPKLLIYWASTRESGVPDRFSGSGSGTDFTLTINNLQAEDVGVYYCQQYYSNPYTFGQGTKLEIK

- Kd: 0.745 nM
- koff: 0.00043 s⁻¹
- kon: 577000 M⁻¹ s⁻¹
B9: 1B9-H2K2-IgG4 (antibody, V domains shown)
VH: EVQLVQSGAEVKKPGASVKVSCKASGYTFTSFWMNWVRLAPGAGLEWIGRVDPYDSETHYNQKFKDRAILTVDTSTSTAYMELSSLRAGDIAVYYCATQFGFSWLAYWGQGTLVTVSA
VL: DIVMTQSPGSLAVSAGESVSINCKSSQSLLYSSNQKNYLAWYQQKPGESPKLLIYWASTRESGVPDRFSGSGSGTDFTLTINNVQAEDVGVYYCQQYYSNPYTFGQGTKLEIK

- Kd: 0.29 nM
- koff: 0.000152 s⁻¹
- kon: 525000 M⁻¹ s⁻¹
B10: 4A7-mHvKv-dIgG4 (antibody, V domains shown)
VH: EVQLVESGGDLVKPGGSLKLSCVASGFPFSNFGMSWVRQTPDKRLEWVATISSGSSYSYYSDSVKGRFTISRDNAKNTLFLQMNSLKSEDTAIFYCARGESRFAYWGQGTLVTVSA
VL: DVVITQDELSNPVTSGESVSISCRSNKSLLYEDGQTYLNWFLQRPGQSPQLLIYLMSTRASGVSDRFSGSGSGTDFTLEISEVRAEDVGVYYCQQLIEYPLTFGAGTKLELKR

- Kd: 0.094 nM
- koff: 0.000135 s⁻¹
- kon: 1.44e+06 M⁻¹ s⁻¹
B2: 1D8-mHvKv-dIgG4 (antibody, V domains shown)
VH: EVQLVESGGDLVKPGGSLKLSCAASGFTFNNFGMSWVRQNPDKRLEWVATLSSGSSYTYYSDSVKGRFTISRDNAKNTLYLQMNSLKSEDTAMYYCTRGESRFAYWGQGTLVTVSA
VL: GVVITQDELSNPVTSGESVSISCRSSKSLLYKDGKTYLNWFLQRPGQSPQLLIYLMSTRASGVSDRFSGSGSGTDFTLEISRVKAEDVGVYYCQQLIEYPLTFGAGTKLELKR
